As a reminder, the Km is the substrate concentration at which the rate is half of its maximum.

We go through two proteins from patent US20090232762A1, “COMPOSITIONS FOR DELIVERY OF THERAPEUTIC AGENTS” (priority 2008, published 2009).

Holding throughout (format): biochemical, S. cerevisiae
Substrate in data set [1]: Nc1nc(=O)[nH]cc1F
Nature of the data set: Enzyme activity of yCD-His (substrate turnover). To be noted: other: enzyme yCD-His, 10 uL of 4.52 ug/mL stock; average ±SE; 23.0 °C. On the procedure: (§1) The S. cerevisiae yeast cytosine deaminase (yCD) enzyme was cloned and expressed. The resulting 474 bp gene was subcloned into pET-15b to facilitate purification of the protein via a fused histidine tag and transformed into competent BL21(DE3) cells for protein expression. An estimate of about 25-30 mg of pure yCD-His was collected from a 1-liter culture. Thrombin cleavage of the histidine tag on yCD-His was achieved by incubating the protein for 2 hours at 23° C. in thrombin cleavage buffer. Enzyme activity characteristics for yCD and yCD-His was investigated using both the prodrug 5FC and the enzyme's natural substrate, the DNA base cytosine. Five-FC turnover rates remained within 10^5 M^−1·s^−1 (Table 1) for both proteins (see E. Kievit et al. Cancer Res. 2000, 60:6649-6655). The diffusion controlled limit for extremely efficient enzymes and their substrates in solution is in the range 10^8-10^9 M^−1·s^−1, therefore it was concluded that yCD was a very efficient pretargeting enzyme for catalyzing 5FC to 5FU conversion, especially applicable to GDEPT.

Substrate in data set [2]: Nc1cc[nH]c(=O)n1
Kind of data set: Enzyme activity of yCD-His (substrate turnover). The conditions noted are these: other: enzyme yCD-His, 10 uL of 4.52 ug/mL stock; average ±SE; 23.0 °C. How it is done:
as §1

Substrate in data set [3]: Nc1nc(=O)[nH]cc1F
Nature of the data set: Enzyme activity of yCD (His tag cleaved). The conditions noted are these: other: enzyme yCD, 10 uL of 4.23 ug/mL stock; average ±SE; 23.0 °C. On the procedure: as §1

Substrate in data set [4]: Nc1cc[nH]c(=O)n1
Kind of data set: Enzyme activity of yCD (His tag cleaved). The conditions noted are these: other: enzyme yCD, 10 uL of 4.23 ug/mL stock; average ±SE; 23.0 °C. How it is done:
as §1

B1: yCD-His (Saccharomyces cerevisiae S288C) (protein)
chain: MVTGGMASKWDQKGMDIAYEEAALGYKEGGVPIGGCLINNKDGSVLGRGHNMRFQKGSATLHGEISTLENCGRLEGKVYKDTTLYTTLSPCDMCTGAIIMYGIPRCVVGENVNFKSKGEKYLQTRGHEVVVVDDERCKKIMKQFIDERPQDWFEDIGE
notes: The resulting 474 bp gene was subcloned into pET-15b; made in house; host or cells: E. coli BL21(DE3)
For B1, the results for the Km in data set [1] and in data set [2] were 1000 ± 240 µM and 4040 ± 1120 µM, respectively.

B2: yCD (Saccharomyces cerevisiae S288C) (protein)
chain: B1 chain
notes: The resulting 474 bp gene was subcloned into pET-15b; histidine tag (pET-15b) (N, cleaved yes); made in house; host or cells: E. coli BL21(DE3)
Take B2: the Km in data set [3] came to 800 ± 180 µM; in data set [4] it was 3750 ± 690 µM.
